# According to publication doi:10.1101/2024.09.19.614007 (bioRxiv, 2024):
# B1: Escherichia coli glutamate kinase (enzyme, UniProt P0A7B5 1-367, looked up)
# chain: MSDSQTLVVKLGTSVLTGGSRRLNRAHIVELVRQCAQLHAAGHRIVIVTSGAIAAGREHLGYPELPATIASKQLLAAVGQSRLIQLWEQLFSIYGIHVGQMLLTRADMEDRERFLNARDTLRALLDNNIVPVINENDAVATAEIKVGDNDNLSALAAILAGADKLLLLTDQKGLYTADPRSNPQAELIKDVYGIDDALRAIAGDSVSGLGTGGMSTKLQAADVACRAGIDTIIAAGSKPGVIGDVMEGISVGTLFHAQATPLENRKRWIFGAPPAGEITVDEGATAAILERGSSLLPKGIKSVTGNFSRGEVIRICNLEGRDIAHGVSRYNSDALRRIAGHHSQEIDAILGYEYGPVAVHRDDMITR
# Target: the molecule itself
# Experiment: cryo-EM structure
protein,measurement,value
B1,stoichiometry N,4
